According to US20060281072A1 (CRUCELL HOLLAND B V, published 2006):
Where a chain is given by its changes, count along the chain named.

T1: human OX40-Ig fusion protein (human, UniProt P43489 29-214)
T1 construct: extracellular domain; Bought (Alexis Biochemicals); not shown: CH2 and CH3 domains of human IgG1
T1 sequence (looked up): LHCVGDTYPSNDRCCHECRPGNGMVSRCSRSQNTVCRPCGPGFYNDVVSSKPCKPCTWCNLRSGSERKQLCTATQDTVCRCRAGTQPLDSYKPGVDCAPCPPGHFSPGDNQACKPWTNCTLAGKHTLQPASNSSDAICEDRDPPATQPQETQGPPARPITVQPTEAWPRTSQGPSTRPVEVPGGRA

T2: human OX40-receptor (human, UniProt P43489 29-277)
T2 construct: whole, on cells; also called CD134; ACT-4
T2 sequence (looked up): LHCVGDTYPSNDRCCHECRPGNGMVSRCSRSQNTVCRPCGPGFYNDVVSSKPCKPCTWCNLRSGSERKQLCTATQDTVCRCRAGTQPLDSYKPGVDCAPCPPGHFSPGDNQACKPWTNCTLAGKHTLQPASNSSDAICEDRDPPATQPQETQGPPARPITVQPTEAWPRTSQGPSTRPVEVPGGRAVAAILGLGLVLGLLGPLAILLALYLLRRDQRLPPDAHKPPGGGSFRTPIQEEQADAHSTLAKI

B1: phage antibody SC02011 (scFv) (scFv)
scFv: MAEVQLVESGGGVVQPGRSLRLSCAASGFTFSDYTMNWVRQAPGKGLEWVSSISGGSTYYADSRKGRFTISRDNSKNTLYLQMNNLRAEDTAVYYCARDRYFRQQNAFDYWGQGTLVTVLEGTGGSGGTGSGTGTSELDIQMTQSPVTLPVTPGEPASISCRSSQSLLHSNGYNYLDWYLQKPGQSPQLLIYLGSNRASGVPDRFSGSGSGTDFTLKISRVEAEDVGVYYCQQYLTAPPTFGQGTKLEIKRAA
B2: phage antibody SC02012 (scFv) (scFv)
scFv: MAEVQLVESGGGLVKPGGSLRLSCAASGFTFSNDSMNWMRQAPGKGLEWVANINQDGNEKYYADSVKGRFTISRDNSKNSLYLQMNSLRDEDTALYYCARARAAGTIFDYWGQGTLVTVLEGTGGSGGTGSGTGTSELDIQMTQSPSSLSASVGDRVTITCRASQNVSNYLTWYQQKPGKAGKLLIYAASSLQSGVPSRFSGSGSGTDFTLTISSLQPEDFATYYCQQSYFNPATFGQGTKLEIKRAA
B3: human IgG1 antibody 023 (antibody, V domains shown)
VH: EVQLVESGGGLVHPGGSLRLSCAGSGFTFSSYAMHWVRQAPGKGLEWVSAIGTGGGTYYADSVMGRFTISRDNSKNTLYLQMNSLRAEDTAVYYCARYDNVMGLYWFDYWGQGTLVTVSS
VL: EIVLTQSPATLSLSPGERATLSCRASQSVSSYLAWYQQKPGQAPRLLIYDASNRATGIPARFSGSGSGTDFTLTISSLEPEDFAVYYCQQRSNWPPAFGGGTKVEIKR
notes: Human IgG1 made from scFv SC02023, expressed in PER.C6 cells; also called pgG102-023C01
B4: phage antibody SC02022 (scFv) (scFv)
scFv: MAEVQLVESGGGLVHPGGSLRLSCAGSGFTFSSYAMHWVRQAPGKGLEWVSAIGTGGGTYYADSVQGRFTISRDNAKNSLYLQMNSLRAEDTAVYYCARYDEPLTIYWFDSWGQGTLVTVSSGGGGSGGGGSGGGGSEIELTQSPATLSLSPGERATLSCRASQSVSSYLAWYQQKPGQAPRLLIYDASNRATGIPARFSGSGSGTDFTLTISSLEPEDFAVYYCQQRSNWPPAFGGGTKVEIKRAA
notes: selected on OX40+ CD4+ T-cells
B5: phage antibody SC02023 (scFv) (scFv)
scFv: B4 scFv with Q66M, A76S, S79T, E102N, P103V, L104M, T105G, I106L, S111Y
notes: as for B4
B6: phage antibody SC02008 (scFv) (scFv)
scFv: MAEVQLVESGGGLVQPGGSLRLSCAASGFTFSNYTMNWVRQAPGKGLEWVSAISGSGGSTYYADSVKGRFTISRDNSKNTLYLQMNSLRAEDTAVYYCAKDRYSQVHYALDYWGQGTLVTVLEGTGGSGGTGSGTGTSELDIQMTQSPDSLPVTPGEPASISCRSSQSLLHSNGYNYLDWYLQKAGQSPQLLIYLGSNRASGVPDRFSGSGSGTDFTLKISRVEAEDVGVYYCQQYYNHPTTFGQGTKLEIKRAA
notes: the phage coat protein fusion is not described
B7: human IgG1 antibody 008 (antibody, V domains shown)
VH: EVQLVESGGGLVQPGGSLRLSCAASGFTFSNYTMNWVRQAPGKGLEWVSAISGSGGSTYYADSVKGRFTISRDNSKNTLYLQMNSLRAEDTAVYYCAKDRYSQVHYALDYWGQGTLVTVSS
VL: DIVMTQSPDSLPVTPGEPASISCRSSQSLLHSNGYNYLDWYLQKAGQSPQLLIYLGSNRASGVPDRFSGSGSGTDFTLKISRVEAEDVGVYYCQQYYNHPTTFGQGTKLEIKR
notes: Human IgG1 made from scFv SC02008, expressed in PER.C6 cells; also called pgG102-008C01
B8: human IgG1 antibody 021 (antibody, V domains shown)
VH: EVQLVESGGGLVQPRGSLRLSCAASGFTFSSYAMNWVRQAPGKGLEWVAVISYDGSNKYYADSVKGRFTISRDNSKNTLYLQMNSLRAEDTAVYYCAKDRYITLPNALDYWGQGTLVTVSS
VL: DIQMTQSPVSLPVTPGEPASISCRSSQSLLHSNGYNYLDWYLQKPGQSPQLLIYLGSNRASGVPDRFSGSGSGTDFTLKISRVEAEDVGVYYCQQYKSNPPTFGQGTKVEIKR
notes: Human IgG1 made from scFv SC02021, expressed in PER.C6 cells; also called pgG102-021C01
B9: human IgG1 antibody 011 (antibody, V domains shown)
VH: EVQLVESGGGVVQPGRSLRLSCAASGFTFSDYTMNWVRQAPGKGLEWVSSISGGSTYYADSRKGRFTISRDNSKNTLYLQMNNLRAEDTAVYYCARDRYFRQQNAFDYWGQGTLVTVSS
VL: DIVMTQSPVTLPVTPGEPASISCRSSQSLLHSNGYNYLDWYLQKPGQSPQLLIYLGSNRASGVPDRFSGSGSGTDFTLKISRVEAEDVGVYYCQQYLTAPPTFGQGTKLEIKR
notes: Human IgG1 made from scFv SC02011, expressed in PER.C6 cells; also called pgG102-011C01

Experiments:
[1] = biological target: T1, human OX40-Ig fusion protein; experiment: phage ELISA on coated human OX40-Ig, anti-M13 peroxidase, absorbance at 492 nm
Protocol: Selected phage antibodies that were obtained in the screen described above, were validated in ELISA for specificity. For this purpose, human OX40-Ig was coated to Maxisorp™ ELISA plates. After coating, the plates were blocked in 2% MPBS. The selected phage antibodies were incubated in an equal volume of 4% MPBS. The plates are emptied, washed once in PBS, after which the blocked phages were added. Incubation was allowed to proceed for 1 hour, the plates were washed in PBS containing 0.1% Tween-20 and bound phages were detected using an anti-M13 antibody conjugated to peroxidase. As a control, the procedure was performed simultaneously using a control phage antibody directed against thyroglobulin (De Kruif et al. 1995a and 1995b), which served as a negative control.

human OX40-receptor [2] = biological target: T2, human OX40-receptor; experiment: flow cytometry, mix of OX40-receptor transfected (green, PKH67) and control transfected PER.C6 cells, M13 anti-phage PE
Protocol: In another assay the phage antibodies were analyzed for their ability to bind PER.C6™ cells that recombinantly express human OX40-receptor. To this purpose PER.C6™ cells were transfected with a plasmid carrying a cDNA sequence encoding human OX40-receptor or with the empty vector and stable transfectants were selected using standard techniques known to a person skilled in the art (Coligan et al., 2001). For flow cytometry analysis, phage antibodies were first blocked in an equal volume of 4% MPBS for 15 minutes at 4° C. prior to the staining of the OX40-receptor- and control transfected PER.C6™ cells. The blocked phages were added to a mixture of unlabelled control transfected PER.C6™ cells and OX40-receptor transfected PER.C6™ cells that were labelled green using a lipophylic dye (PKH67, Sigma). The binding of the phage antibodies to the cells was visualized using a biotinylated anti-M13 antibody (Santa Cruz Biotechnology) followed by streptavidin-phycoerythrin (Caltag).

human OX40-receptor [3] = biological target: T2, human OX40-receptor; experiment: flow cytometry on OX40-receptor transfected (filled) and mock-transfected (open) PER.C6 cells, anti-human IgG PE, IgG1 at 20 µg/ml
Protocol: The anti-OX40 receptor IgG1 antibodies were validated for their ability to bind to PER.C6™ cells transfected with human OX40-receptor. To this purpose mock- and human OX40-receptor-transfected cells were stained with the IgG1 antibodies at a concentration of 20 μg/ml at 4° C. Binding of the antibodies called 008, 011, 021 and 023 was visualized using biotinylated goat-anti-human IgG (Fc specific, Caltag) followed by streptavidin-phyco-erythrin (Caltag). The stained cells were analyzed by flow cytometry.

human OX40-receptor [4] = biological target: T2, human OX40-receptor; experiment: flow cytometry on tonsil mononuclear cells, M13 anti-phage PE against CD4 FITC
human OX40-receptor [5] = biological target: T2, human OX40-receptor; experiment: flow cytometry on tonsil mononuclear cells, M13 anti-phage APC against CD4 FITC
Protocol: Inflamed tonsils were obtained from patients undergoing routine tonsillectomy. Tonsils were minced and the MNC fraction was isolated by density centrifugation. Flow cytometric analysis of the binding of the anti-OX40-receptor phage antibodies to the OX40+ CD4+ T-cells was performed as described above. The CD4+ T-cells were distinguished from total tonsil MNC using a FITC conjugated antibody against CD4. As shown in FIGS. 3A and 3B the selected anti-human OX40-receptor phage antibodies called SC02008, SC02009, SC02010, SC02011, SC02012 and SC02021 selectively stain a subset of CD4+ T-cells within tonsil and synovial fluid mononuclear cells respectively, while they display minor staining of peripheral blood CD4+ T-cells (FIG. 3C).

| Binder | binding result [1] | binding result (human OX40-receptor [3]) | also measured |
| --- | --- | --- | --- |
| B1 | binds |  | binding result (human OX40-receptor [2]): binds |
| B2 | binds |  | binding result (human OX40-receptor [2]): binds |
| B3 |  | binds |  |
| B4 |  |  | binding result (human OX40-receptor [4]): binds |
| B5 |  |  | binding result (human OX40-receptor [4]): binds |
| B6 | binds |  | binding result (human OX40-receptor [5]): binds |
| B7 |  | binds |  |
| B8 |  | binds |  |
| B9 |  | binds |  |
